# T1: Feline Leukemia Virus subgroup C Receptor 1b (FLVCR1b) (human (endogenous in HEK293T), UniProt Q9Y5Y0-2 1-279)
# T1 construct: FLVCR1 isoform b, the mitochondrially targeted version of FLVCR1a that is missing the first six transmembrane helices; endogenous in human HEK293T cells, detected or precipitated with an anti-FLVCR antibody (Novus NB100-1481); The antibody is named as against human FLVCR / FLVCR1; also called Feline leukemia virus subgroup C receptor 1 isoform b; source: endogenous, HEK293T cells; endogenous, …
# T1 sequence (looked up): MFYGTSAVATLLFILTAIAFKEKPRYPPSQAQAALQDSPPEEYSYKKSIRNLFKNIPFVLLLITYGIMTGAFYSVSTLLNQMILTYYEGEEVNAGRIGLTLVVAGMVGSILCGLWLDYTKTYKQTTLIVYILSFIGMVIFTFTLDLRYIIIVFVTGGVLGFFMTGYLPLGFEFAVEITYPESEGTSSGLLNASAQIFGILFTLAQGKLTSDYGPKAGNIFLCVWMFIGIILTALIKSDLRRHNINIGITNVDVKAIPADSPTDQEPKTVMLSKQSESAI
# T2: FLVCR1b in isolated mouse mitochondria (mouse (endogenous in brain and liver …, UniProt B2RXV4-2 1-279))
# T2 construct: Detected with the antibody named as against FLVCR1 (Novus NB100-1481); also called mitochondrial FLVCR1b; source: endogenous, mitochondria isolated from mouse brain and liver
# T2 sequence (looked up): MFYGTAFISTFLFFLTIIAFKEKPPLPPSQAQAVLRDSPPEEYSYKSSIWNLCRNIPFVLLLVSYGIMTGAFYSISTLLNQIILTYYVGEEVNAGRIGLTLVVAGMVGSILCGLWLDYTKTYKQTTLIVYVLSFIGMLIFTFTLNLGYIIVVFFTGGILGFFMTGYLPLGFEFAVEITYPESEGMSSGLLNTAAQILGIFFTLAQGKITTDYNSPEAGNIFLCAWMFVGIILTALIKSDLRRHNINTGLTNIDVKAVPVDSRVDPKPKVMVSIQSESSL
# B1: H53A point mutant variant of HA-hGAPDH (natural protein)
# chain: not shown
# notes: human GAPDH with H53A, expressed from the H53A variant of pRK5-TC-hGAPDH-HA; also called H53A HA-GAPDH; HA-H53A; source: HEK293T, transfected (H53A variant of pRK5-TC-hGAPDH-HA), in cells; in solubilised mitochondria
# B2: glyceraldehyde phosphate dehydrogenase (GAPDH) (natural protein)
# chain: not shown
# notes: Glyceraldehyde 3-phosphate dehydrogenase, endogenous in the human HEK293T cell line, detected with an anti-GAPDH antibody; In the experiments on isolated mouse mitochondria the GAPDH came with HEK293T cytosol, but mouse GAPDH that stayed on the mitochondria cannot be ruled out; also called Glyceraldehyde 3-phosphate dehydrogenase; source: endogenous, HEK293T cells; endogenous, solubilised HEK293T …
# B3: Transport and Golgi Organization 2 (TANGO2) protein (natural protein, human (endogenous in HEK293T), UniProt Q6ICL3 1-276, looked up)
# chain: MCIIFFKFDPRPVSKNAYRLILAANRDEFYSRPSKLADFWGNNNEILSGLDMEEGKEGGTWLGISTRGKLAALTNYLQPQLDWQARGRGELVTHFLTTDVDSLSYLKKVSMEGHLYNGFNLIAADLSTAKGDVICYYGNRGEPDPIVLTPGTYGLSNALLETPWRKLCFGKQLFLEAVERSQALPKDVLIASLLDVLNNEEAQLPDPAIEDQGGEYVQPMLSKYAAVCVRCPGYGTRTNTIILVDADGHVTFTERSMMDKDLSHWETRTYEFTLQS
# notes: TANGO2, endogenous in human HEK293T cells, detected with an anti-TANGO2 antibody (Invitrogen PA5-51818); also called Transport and Golgi organization 2 homolog; T2; source: endogenous, HEK293T cells
# Assays:
# Settings in all cases: partners not purified
# [1] = molecular target: T1, Feline Leukemia Virus subgroup C …; test: proximity ligation; Duolink PLA on HEK293T cells transfected with HA-tagged GAPDH wild type or H53A, antibodies to HA and FLVCR1; resting and at times after δ-ALA/Fe; background = one primary antibody alone
# [2] = molecular target: T1, Feline Leukemia Virus subgroup C …; test: proximity ligation; Duolink PLA on fixed, permeabilised heme-depleted HEK293T cells, pairs of primary antibodies to the endogenous proteins; 0, 15, 30, 45, 60 and 120 min after δ-ALA (1 mM) and ferric citrate (100 μM); also in cells with control siRNA or knock-down of TANGO2 or GAPDH; background = one primary antibody alone, set to 1.0
# [3] = molecular target: T2, FLVCR1b in isolated mouse mitochondria; test: proximity ligation; Duolink PLA on mitochondria from mouse brain and liver, before or after incubation with δ-ALA and mitochondria-free HEK293T cytosol (control or TANGO2 knock-down cells) at 37 °C, reisolated and placed on poly-D-lysine coverslips
# [4] = molecular target: B2; test: proximity ligation; Duolink PLA on fixed, permeabilised heme-depleted HEK293T cells, pairs of primary antibodies to the endogenous proteins; 0, 15, 30, 45, 60 and 120 min after δ-ALA (1 mM) and ferric citrate (100 μM); also in cells with control siRNA or knock-down of TANGO2 or GAPDH; background = one primary antibody alone, set to 1.0
"PLA signal over background, resting cells [1] [fold over background]","PLA signal over background, resting cells [2] [fold over background]",fold increase of PLA signal 30 min after δ-ALA/Fe [2] [fold],fold increase of PLA signal after 30 min with δ-ALA and cytosol [3] [fold],PLA signal over background [4] [fold over background],Binder
~2,–,–,–,–,B1
–,2.5,18,4,–,B2
–,5,–,–,2.5,B3
